# Measured values taken from patent US20110300138A1 (published 2011).
# Legend:
# [1] = target: T1, human TSH receptor (full length), coated on tubes (human, UniProt P16473 22-764); test: inhibition of 125I-K1-70 Fab (competitor) binding to TSHR coated tubes; 1 µg/mL in assay buffer
# T1 construct: TSHR coated tubes as described in WO2004/050708A2; The receptor is full length and held on plastic tubes through a mouse MAb to the TSHR; also called thyroid stimulating hormone receptor
# Protocol: (§1) Binding inhibition assays were carried out using TSHR coated tubes as described in WO2004/050708A2. […] After aspiration, the tubes were washed and 100 μL of ¹²⁵I-labelled protein (5×10⁴ cpm) added and incubated for 1 hour at room temperature with shaking. The tubes were then aspirated, washed and counted in a gamma counter. Inhibition of labelled protein binding was calculated as 100×[1−(cpm bound in the presence of test material/cpm bound in the presence of control material)].
# [2] = target: T1, human TSH receptor (full length), …; test: inhibition of 125I-K1-70 Fab (competitor) binding to TSHR coated tubes; 3 µg/mL in assay buffer
# Protocol: as §1
# [3] = target: T1, human TSH receptor (full length), …; test: inhibition of 125I-K1-70 Fab (competitor) binding to TSHR coated tubes; 10 µg/mL in assay buffer
# Protocol: as §1
# [4] = target: T1, human TSH receptor (full length), …; test: inhibition of 125I-K1-70 Fab (competitor) binding to TSHR coated tubes; 30 µg/mL in assay buffer
# Protocol: as §1
# [5] = target: T1, human TSH receptor (full length), …; test: inhibition of 125I-K1-70 Fab (competitor) binding to TSHR coated tubes; 0.1 µg/mL in assay buffer
# Protocol: as §1
# [6] = target: T1, human TSH receptor (full length), …; test: inhibition of 125I-K1-70 Fab (competitor) binding to TSHR coated tubes; 0.3 µg/mL in assay buffer
# Protocol: as §1
# [7] = target: T1, human TSH receptor (full length), …; test: inhibition of 125I-K1-70 Fab (competitor) binding to TSHR coated tubes; 1 µg/mL in HBD serum pool
# Protocol: as §1
# [8] = target: T1, human TSH receptor (full length), …; test: inhibition of 125I-K1-70 Fab (competitor) binding to TSHR coated tubes; 100 µg/mL in assay buffer
# Protocol: as §1
# [9] = target: T1, human TSH receptor (full length), …; test: inhibition of 125I-K1-70 Fab (competitor) binding to TSHR coated tubes; 3 µg/mL in HBD serum pool
# Protocol: as §1
# [10] = target: T1, human TSH receptor (full length), …; test: inhibition of 125I-K1-70 Fab (competitor) binding to TSHR coated tubes; 0.01 µg/mL in assay buffer
# Protocol: as §1
# [11] = target: T1, human TSH receptor (full length), …; test: inhibition of 125I-K1-70 Fab (competitor) binding to TSHR coated tubes; 0.03 µg/mL in assay buffer
# Protocol: as §1
# [12] = target: T1, human TSH receptor (full length), …; test: inhibition of 125I-K1-70 Fab (competitor) binding to TSHR coated tubes; 10 µg/mL in HBD serum pool
# Protocol: as §1
# [13] = target: T1, human TSH receptor (full length), …; test: inhibition of 125I-K1-70 Fab (competitor) binding to TSHR coated tubes; 30 µg/mL in HBD serum pool
# Protocol: as §1
# [14] = target: T1, human TSH receptor (full length), …; test: inhibition of 125I-K1-70 Fab (competitor) binding to TSHR coated tubes; 0.001 µg/mL in assay buffer
# Protocol: as §1
# [15] = target: T1, human TSH receptor (full length), …; test: inhibition of 125I-K1-70 Fab (competitor) binding to TSHR coated tubes; 0.003 µg/mL in assay buffer
# Protocol: as §1
# [16] = target: T1, human TSH receptor (full length), …; test: inhibition of 125I-K1-70 Fab (competitor) binding to TSHR coated tubes; 0.1 µg/mL in HBD serum pool
# Protocol: as §1
# [17] = target: T1, human TSH receptor (full length), …; test: inhibition of 125I-K1-70 Fab (competitor) binding to TSHR coated tubes; 0.3 µg/mL in HBD serum pool
# Protocol: as §1
# [18] = target: T1, human TSH receptor (full length), …; test: inhibition of 125I-K1-70 Fab (competitor) binding to TSHR coated tubes; 100 µg/mL in HBD serum pool
# Protocol: as §1
# [19] = target: T1, human TSH receptor (full length), …; test: inhibition of 125I-K1-70 Fab (competitor) binding to TSHR coated tubes; 0.01 µg/mL in HBD serum pool
# Protocol: as §1
# [20] = target: T1, human TSH receptor (full length), …; test: inhibition of 125I-K1-70 Fab (competitor) binding to TSHR coated tubes; 0.03 µg/mL in HBD serum pool
# Protocol: as §1
# [21] = target: T1, human TSH receptor (full length), …; test: inhibition of 125I-K1-70 Fab (competitor) binding to TSHR coated tubes; 0.001 µg/mL in HBD serum pool
# Protocol: as §1
# [22] = target: T1, human TSH receptor (full length), …; test: inhibition of 125I-K1-70 Fab (competitor) binding to TSHR coated tubes; 0.003 µg/mL in HBD serum pool
# Protocol: as §1
Inhibition of binding (%) [1] [%],Inhibition of binding (%) [2] [%],Inhibition of binding (%) [3] [%],Inhibition of binding (%) [4] [%],Inhibition of binding (%) [5] [%],Inhibition of binding (%) [6] [%],Inhibition of binding (%) [7] [%],Inhibition of binding (%) [8] [%],Inhibition of binding (%) [9] [%],Inhibition of binding (%) [10] [%],Inhibition of binding (%) [11] [%],Inhibition of binding (%) [12] [%],Inhibition of binding (%) [13] [%],Inhibition of binding (%) [14] [%],Inhibition of binding (%) [15] [%],Inhibition of binding (%) [16] [%],Inhibition of binding (%) [17] [%],Inhibition of binding (%) [18] [%],Inhibition of binding (%) [19] [%],Inhibition of binding (%) [20] [%],Binder,further results
95.2,95.5,96.9,97.7,93.5,94.2,94.1,97.7,96.2,66.2,89,96.6,97.4,5.5,27.7,66.5,97,97.7,10.6,37.8,"K1-70 IgG (antibody, V domains shown, Human IgG1 lambda purified from hetero-hybridoma supernatant; also called human monoclonal autoantibody to the TSHR with TSH antagonist activity) VH: EVQLVQSGAEVKKPGQSLKISCKASGYSLTDNWIGWVRQKPGKGLEWMGIIYPGDSDTRYSPSFQGQVTISADKSINTAYLQWSSLKASDTAIYYCVGLDWNYNPLRYWGPGTLVTVSS VL: QSVLTQPPSVSAAPGQKVTISCSGSSSDIGSNYVSWYQQFPGTAPKLLIYDNNKRPSAIPDRFSGSKSGTSATLGITGLQTGDEADYYCGTWDSRLGIAVFGGGTQLTVLG",Inhibition of binding (%) [21]: -8.8%; Inhibition of binding (%) [22]: -0.8%
93.1,93.3,94,94.5,83.6,92.6,89.4,95.3,93,30.3,63.1,94.8,95.6,5.9,11.4,51,77.7,96,2.2,17.2,"K1-18 IgG (antibody, V domains shown, Human IgG1 kappa purified from hetero-hybridoma supernatant; also called human monoclonal autoantibody to the TSHR with TSH agonist activity) VH: EVQLVQSGAEVKKPGESLKISCKGSGYSFTNYWIGWVRQMPGKGLEWMGIIYPYDSDTRYSPSFEGQVTISADKSIRTAYLHWSSLKASDTAMYYCVRPRDGSYPYDAFDIWGQGTMVTVSS VL: EIVLTQSPGTLSLSPGERATLSCRASQSVSNNYLAWYQQKPGQAPRLLIYGASSRATGIPDRFSGSGSGTDFTLTISRLEPEDFAVYYCQHCGSSLRAFGQGTKVEIKR",Inhibition of binding (%) [21]: -6.8%; Inhibition of binding (%) [22]: -9.4%
79,80.6,80.8,83.2,62.9,75.9,78.7,86.4,82.6,16.7,38.8,83.2,85.4,3.8,5,36.9,63.9,85.7,-0.8,7.9,"K1-18 Fab (Fab, V domains shown) VH: EVQLVQSGAEVKKPGESLKISCKGSGYSFTNYWIGWVRQMPGKGLEWMGIIYPYDSDTRYSPSFEGQVTISADKSIRTAYLHWSSLKASDTAMYYCVRPRDGSYPYDAFDIWGQGTMVTVSS VL: EIVLTQSPGTLSLSPGERATLSCRASQSVSNNYLAWYQQKPGQAPRLLIYGASSRATGIPDRFSGSGSGTDFTLTISRLEPEDFAVYYCQHCGSSLRAFGQGTKVEIKR",Inhibition of binding (%) [21]: -8.2%; Inhibition of binding (%) [22]: -9.6%
